Source: PMC9333347

Molecular target: thermostable exoshell tES(+)F116H
Assay: AUC

Substance: horseradish peroxidase (from UniProt P00433 31-338) (enzyme)
- stoichiometry N (HRP molecules per tES shell): 2
